Test results as given in article PMC5122161, “Novel prokaryotic expression of thioredoxin-fused insulinoma associated protein tyrosine phosphatase 2 (IA-2), its characterization and immunodiagnostic application” (BMC Biotechnology, 2016).

Target: the molecule itself
Experiment: SEC; Superdex 75 HR 10/30, PBS as mobile phase, room temperature, 1.0 mL/min, 50 ug/500 uL purified TrxIA-2ic injected; calibration with globular standards; eluted fractions identified by western blot with rabbit serum to IA-2

B1: intracellular domain of IA-2 fused to thioredoxin (TrxIA-2ic) (domain or fragment, human, UniProt Q16849 604-979, looked up)
chain: ARQQDKERLAALGPEGAHGDTTFEYQDLCRQHMATKSLFNRAEGPPEPSRVSSVSSQFSDAAQASPSSHSSTPSWCEEPAQANMDISTGHMILAYMEDHLRNRDRLAKEWQALCAYQAEPNTCATAQGEGNIKKNRHPDFLPYDHARIKLKVESSPSRSDYINASPIIEHDPRMPAYIATQGPLSHTIADFWQMVWESGCTVIVMLTPLVEDGVKQCDRYWPDEGASLYHVYEVNLVSEHIWCEDFLVRSFYLKNVQTQETRTLTQFHFLSWPAEGTPASTRPLLDFRRKVNKCYRGRSCPIIVHCSDGAGRTGTYILIDMVLNRMAKGVKEIDIAATLEHVRDQRPGLVRSKDQFEFALTAVAEEVNAILKALPQ
notes: insulinoma associated protein tyrosine phosphatase 2 (IA-2), human, intracellular domain IA-2ic, residues 604 to 979 of the 979-residue protein; codon-optimised synthetic gene adapted from GenBank L18983.1; Thioredoxin was not removed; also called thioredoxin-fused insulinoma associated protein tyrosine phosphatase 2; not shown: thioredoxin (E. coli), N-terminal, kept
B1 was tested, and the “stoichiometry N” value was 2.
